According to IntAct's records for PubMed 25096571:

B1: Forkhead box protein P3 (Homo sapiens), Q9BZS1-1 (parent)
chain: MPNPRPGKPSAPSLALGPSPGASPSWRAAPKASDLLGARGPGGTFQGRDLRGGAHASSSSLNPMPPSQLQLPTLPLVMVAPSGARLGPLPHLQALLQDRPHFMHQLSTVDAHARTPVLQVHPLESPAMISLTPPTTATGVFSLKARPGLPPGINVASLEWVSREPALLCTFPNPSAPRKDSTLSAVPQSSYPLLANGVCKWPGCEKVFEEPEDFLKHCQADHLLDEKGRAQCLLQREMVQSLEQQLVLEKEKLSAMQAHLAGKMALTKASSVASSDKGSCCIVAAGSQGPVVPAWSGPREAPDSLFAVRRHLWGSHGNSTFPEFLHNMDYFKFHNMRPPFTYATLIRWAILEAPEKQRTLNEIYHWFTRMFAFFRNHPATWKNAIRHNLSLHKCFVRVESEKGAVWTVDELEFRKKRSQRPSRCSNPTPGP

Variants of: B1
Conditions: with PIM1, P11309-1

| Variant | effect of a mutation on the interaction |
| --- | --- |
| S418C | increasing interaction strength |
| S418A | decreasing interaction strength |
| S418D | disrupting interaction strength |
| S418G | increasing interaction strength |

Variants of: B1
Conditions: with PIM1, P11309-1
Remark: another data set of the same source

| Variant | effect of a mutation on the interaction |
| --- | --- |
| S422A | decreasing interaction strength |
